This is an account of results in patent publication US20250312468A1, “ANTI-PROTAC ANTIBODIES AND COMPLEXES” (Merck Patent GmbH, priority 2021, published 2025).

Experiment [1] deals with EGFR (UniProt P00533). Kind of experiment: flow cytometry on MDAMB468 cells, Alexa Fluor 488 anti-human IgG Fab as secondary, on ice. A general note: Flow cytometry measures light scatter and fluorescence of single cells or particles in a stream.
Experiment [2] has as its target EGFR (UniProt P00533). Kind of experiment: cell-based or functional assay.
A further experiment deals with CD33 (UniProt P20138). Kind of experiment: flow cytometry on CD33-expressing MV411 cells, Alexa Fluor 488 anti-human IgG Fab as secondary, on ice.

By EC50 (read off the curve) is commonly meant the concentration needed to bring the measured effect to its halfway point. The low end stands for higher potency in that assay, the high end for lower potency in that assay. The substance EGFR-binding antibody Cetuximab showed an EC50 (read off the curve) in the experiment with EGFR [1] of 600 pM.
With C225-L328C-GNE987 (antibody), in the experiment with EGFR [2], the IC50 cell viability, MDAMB468 cells, three independent experiments came to 800 pM and the remaining nuclear BRD4 (immunofluorescence) in EGFR-expressing MDAMB468 cells at 4 nM stood at 44.2%.
Regarding “CD33-binding antibody Gemtuzumab (IgG4-PG-SPLE)”, the EC50 (read off the curve) with CD33 was found to be 300 pM. That is a sub-nanomolar value.
